Measurements: patent US20220267751A1

Target: recombinant streptokinase from Streptococcus pyrogenes (so in the source) (Streptococcus pyrogenes (so in the source))
Experiment: SPR (Biacore T200), SK on Ni2+-NTA chip, 1:1 Langmuir model

Chain of recombinant plasminogen (P00747 20-810 limits assumed): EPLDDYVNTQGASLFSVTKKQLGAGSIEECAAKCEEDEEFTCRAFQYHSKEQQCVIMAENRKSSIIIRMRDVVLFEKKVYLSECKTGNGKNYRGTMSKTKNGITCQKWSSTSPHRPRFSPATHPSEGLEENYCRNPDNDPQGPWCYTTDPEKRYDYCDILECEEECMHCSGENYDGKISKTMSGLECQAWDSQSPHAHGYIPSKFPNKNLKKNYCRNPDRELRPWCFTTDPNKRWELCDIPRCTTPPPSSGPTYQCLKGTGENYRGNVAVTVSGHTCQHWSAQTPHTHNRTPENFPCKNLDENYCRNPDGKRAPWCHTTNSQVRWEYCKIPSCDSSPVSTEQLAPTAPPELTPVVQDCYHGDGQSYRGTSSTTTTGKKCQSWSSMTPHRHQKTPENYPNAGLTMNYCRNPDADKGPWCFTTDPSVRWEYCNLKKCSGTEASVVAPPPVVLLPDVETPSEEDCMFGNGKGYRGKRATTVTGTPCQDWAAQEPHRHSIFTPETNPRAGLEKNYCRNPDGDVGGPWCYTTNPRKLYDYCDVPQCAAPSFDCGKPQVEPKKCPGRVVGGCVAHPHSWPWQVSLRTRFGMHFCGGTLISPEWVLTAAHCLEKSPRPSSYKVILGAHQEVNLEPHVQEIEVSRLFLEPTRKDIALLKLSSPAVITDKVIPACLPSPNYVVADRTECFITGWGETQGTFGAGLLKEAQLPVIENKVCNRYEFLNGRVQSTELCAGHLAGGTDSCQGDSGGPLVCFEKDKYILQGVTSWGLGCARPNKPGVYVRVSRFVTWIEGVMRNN
Chain of native plasminogen (purchased from Merck, purified from human plasma) (P00747 20-810 limits assumed): as above
Chain of native plasmin (purchased from Haematologic Technologies) (P00747 97-580 limits assumed): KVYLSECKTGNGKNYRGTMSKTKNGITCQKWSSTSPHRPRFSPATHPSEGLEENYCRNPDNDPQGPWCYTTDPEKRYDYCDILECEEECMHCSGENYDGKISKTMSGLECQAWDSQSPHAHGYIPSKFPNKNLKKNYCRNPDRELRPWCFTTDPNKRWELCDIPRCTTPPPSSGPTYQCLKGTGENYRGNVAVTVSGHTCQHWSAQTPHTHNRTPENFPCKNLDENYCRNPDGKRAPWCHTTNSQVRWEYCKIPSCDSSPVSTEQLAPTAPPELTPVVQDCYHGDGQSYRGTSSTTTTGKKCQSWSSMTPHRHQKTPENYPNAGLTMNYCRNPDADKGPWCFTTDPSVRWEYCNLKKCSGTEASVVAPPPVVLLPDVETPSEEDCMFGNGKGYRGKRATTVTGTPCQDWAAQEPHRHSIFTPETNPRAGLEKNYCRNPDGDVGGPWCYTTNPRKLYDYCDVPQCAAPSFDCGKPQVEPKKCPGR
Chain of native plasmin (purchased from Haematologic Technologies) (P00747 581-810 limits assumed): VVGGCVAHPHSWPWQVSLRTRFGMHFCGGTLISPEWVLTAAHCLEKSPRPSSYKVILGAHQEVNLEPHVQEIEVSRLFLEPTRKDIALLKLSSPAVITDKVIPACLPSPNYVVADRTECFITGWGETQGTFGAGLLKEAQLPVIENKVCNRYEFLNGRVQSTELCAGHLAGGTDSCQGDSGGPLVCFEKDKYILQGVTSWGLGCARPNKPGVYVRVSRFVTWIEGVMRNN

Row | Substance | Kd | koff | kon
1 | native plasmin (purchased from Haematologic Technologies) (from UniProt P00747 97-580; P00747 581-810) (enzyme) | 0.33 nM | 0.0023 s⁻¹ | 7.1e+06 M⁻¹ s⁻¹
2 | native plasminogen (purchased from Merck, purified from human plasma) (from UniProt P00747 20-810) | 1.4 nM | 0.00032 s⁻¹ | 230000 M⁻¹ s⁻¹
3 | recombinant plasminogen (from UniProt P00747 20-810) | 1.4 nM | 0.00036 s⁻¹ | 270000 M⁻¹ s⁻¹
